Reference: patent US20180185450A1 (Sanofi, published 2018)
Numbered stars: 1 amine (or outer) side, 2 acyl side, 3 side chain; on linkers, the order of the positions; unused ones are H or OH. Square brackets hold non-standard residues; d marks the D form. Side chains are listed from the residue outwards. Ends that are not written are not given here. γGlu = O=C(O)[C@H](CCC(=O)[*:2])N[*:1]; X70 = not defined here; x53 = not defined here; Aib = CC(C)(N)C(=O)O

These binders were tested against T1, human GLP-1 receptor (human, UniProt P43220 24-463) (assay: cell-based or functional assay).

Compared with HXQGTFTSDLSKQKDSRRAQDFIEWLKRGGPSSGAPPPS (dSer at 2; K(γE-x53) at 14; C-terminal NH2) [SEQ ID NO: 125], HXQGTFTSDLSKQKDSKAAQDFIEWLKAGGPSSGAPPPS (dSer at 2; K(γE-x53) at 14; C-terminal NH2) [SEQ ID NO: 30] is 9.8-fold lower in “EC50 hGLP-1R (cAMP)” value: 31.4 pM for the first, 3.2 pM for the second.

First: HXQGTFTSDLSKQKESKAAQDFIEWLKAGGPSSGAPPPS (dSer at 2; K(γE-x53) at 14; C-terminal NH2) [SEQ ID NO: 24]
Second: HXQGTFTSDLSKQKESRRAQDFIEWLKAGGPSSGAPPPS (dSer at 2; K(γE-x53) at 14; C-terminal NH2) [SEQ ID NO: 4]
The “EC50 hGLP-1R (cAMP)” value of the first is 2.5-fold lower: 2 pM for the first, 5 pM for the second.

Compared with H[Aib]QGTFTSDLSKQK([γGlu-X70])DEEAARLFIEWLKAGGPSSGAPPPS-NH2 (reading uncertain) [SEQ ID NO: 216], H[Aib]QGTFTSDLSKQK([γGlu-x53])DSRRAQDFIEWLKNGGPSSGAPPPS-NH2 (reading uncertain) [SEQ ID NO: 115] is 2-fold lower in “EC50 hGLP-1R (cAMP)” value: 4.7 pM for the first, 2.4 pM for the second.

In the case of H[Aib]QGTFTSDLSKQK([γGlu-X70])EEEAARLFIEWLKAGGPSSGAPPPS-NH2 (reading uncertain) [SEQ ID NO: 215], the “EC50 hGLP-1R (cAMP)” value is reported as 5.3 pM.

What follows are binders tested against T2, human glucagon receptor (human, UniProt P47871 26-477) (assay: cell-based or functional assay).
T2 sequence (P47871 26-477): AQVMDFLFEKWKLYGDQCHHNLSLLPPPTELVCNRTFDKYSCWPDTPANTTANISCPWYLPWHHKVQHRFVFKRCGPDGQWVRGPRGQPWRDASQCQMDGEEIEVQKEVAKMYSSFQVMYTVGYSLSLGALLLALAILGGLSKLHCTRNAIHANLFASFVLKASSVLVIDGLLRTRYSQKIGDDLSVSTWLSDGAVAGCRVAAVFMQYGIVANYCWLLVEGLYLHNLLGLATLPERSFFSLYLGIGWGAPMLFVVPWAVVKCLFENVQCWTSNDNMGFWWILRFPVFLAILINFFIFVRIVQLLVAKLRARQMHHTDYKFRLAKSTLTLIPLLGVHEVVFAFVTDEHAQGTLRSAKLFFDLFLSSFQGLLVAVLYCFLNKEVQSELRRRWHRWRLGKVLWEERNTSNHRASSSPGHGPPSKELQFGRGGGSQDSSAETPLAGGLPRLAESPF

HXQGTFTSDLSKQKDSRRAQDFIEWLKRGGPSSGAPPPS (dSer at 2; K(γE-x53) at 14; C-terminal NH2) [SEQ ID NO: 125] and HXQGTFTSDLSKQKDSKAAQDFIEWLKAGGPSSGAPPPS (dSer at 2; K(γE-x53) at 14; C-terminal NH2) [SEQ ID NO: 30] are within 1.5-fold of each other in “EC50 hGlucagon-R (cAMP)” value: 6.9 pM for the first, 7 pM for the second.

Compared with HXQGTFTSDLSKQKESKAAQDFIEWLKAGGPSSGAPPPS (dSer at 2; K(γE-x53) at 14; C-terminal NH2) [SEQ ID NO: 24], HXQGTFTSDLSKQKESRRAQDFIEWLKAGGPSSGAPPPS (dSer at 2; K(γE-x53) at 14; C-terminal NH2) [SEQ ID NO: 4] is 2.5-fold lower in “EC50 hGlucagon-R (cAMP)” value: 9.8 pM for the first, 4 pM for the second.

First: H[Aib]QGTFTSDLSKQK([γGlu-X70])DEEAARLFIEWLKAGGPSSGAPPPS-NH2 (reading uncertain) [SEQ ID NO: 216]
Second: H[Aib]QGTFTSDLSKQK([γGlu-x53])DSRRAQDFIEWLKNGGPSSGAPPPS-NH2 (reading uncertain) [SEQ ID NO: 115]
The “EC50 hGlucagon-R (cAMP)” value of the first is 10-fold higher: 19.5 pM for the first, 1.9 pM for the second.

For H[Aib]QGTFTSDLSKQK([γGlu-X70])EEEAARLFIEWLKAGGPSSGAPPPS-NH2 (reading uncertain) [SEQ ID NO: 215], the “EC50 hGlucagon-R (cAMP)” value was 42.6 pM.

Molecular target: T1, human GLP-1 receptor
Assay: cell-based or functional assay
Remark: another data set of the same source

Compared with HXQGTFTSDLSKQKDSRRAQDFIEWLKRGGPSSGAPPPS (dSer at 2; K(γE-x53) at 14; C-terminal NH2) [SEQ ID NO: 125], HXQGTFTSDLSKQKDSKAAQDFIEWLKAGGPSSGAPPPS (dSer at 2; K(γE-x53) at 14; C-terminal NH2) [SEQ ID NO: 30] is 9.8-fold lower in “EC50 hGLP-1R (cAMP)” value: 31.4 pM for the first, 3.2 pM for the second.

Going from HXQGTFTSDLSKQKESKAAQDFIEWLKAGGPSSGAPPPS (dSer at 2; K(γE-x53) at 14; C-terminal NH2) [SEQ ID NO: 24] to HXQGTFTSDLSKQKESRRAQDFIEWLKAGGPSSGAPPPS (dSer at 2; K(γE-x53) at 14; C-terminal NH2) [SEQ ID NO: 4], the “EC50 hGLP-1R (cAMP)” value rises from 1.9 pM to 5 pM (2.6-fold).

First: H[Aib]QGTFTSDLSKQK([γGlu-X70])DEEAARLFIEWLKAGGPSSGAPPPS-NH2 (reading uncertain) [SEQ ID NO: 216]
Second: H[Aib]QGTFTSDLSKQK([γGlu-x53])DSRRAQDFIEWLKNGGPSSGAPPPS-NH2 (reading uncertain) [SEQ ID NO: 115]
The “EC50 hGLP-1R (cAMP)” value of the first is 2-fold higher: 4.7 pM for the first, 2.4 pM for the second.

With H[Aib]QGTFTSDLSKQK([γGlu-X70])EEEAARLFIEWLKAGGPSSGAPPPS-NH2 (reading uncertain) [SEQ ID NO: 215] the “EC50 hGLP-1R (cAMP)” value was 5.3 pM.

Molecular target: T2, human glucagon receptor
Assay: cell-based or functional assay
Remark: another data set of the same source

HXQGTFTSDLSKQKDSRRAQDFIEWLKRGGPSSGAPPPS (dSer at 2; K(γE-x53) at 14; C-terminal NH2) [SEQ ID NO: 125] and HXQGTFTSDLSKQKDSKAAQDFIEWLKAGGPSSGAPPPS (dSer at 2; K(γE-x53) at 14; C-terminal NH2) [SEQ ID NO: 30] are within 1.5-fold of each other in “EC50 hGlucagon-R (cAMP)” value: 6.9 pM for the first, 7 pM for the second.

First: HXQGTFTSDLSKQKESKAAQDFIEWLKAGGPSSGAPPPS (dSer at 2; K(γE-x53) at 14; C-terminal NH2) [SEQ ID NO: 24]
Second: HXQGTFTSDLSKQKESRRAQDFIEWLKAGGPSSGAPPPS (dSer at 2; K(γE-x53) at 14; C-terminal NH2) [SEQ ID NO: 4]
The “EC50 hGlucagon-R (cAMP)” value of the first is 2.4-fold higher: 9.4 pM for the first, 4 pM for the second.

Going from H[Aib]QGTFTSDLSKQK([γGlu-X70])DEEAARLFIEWLKAGGPSSGAPPPS-NH2 (reading uncertain) [SEQ ID NO: 216] to H[Aib]QGTFTSDLSKQK([γGlu-x53])DSRRAQDFIEWLKNGGPSSGAPPPS-NH2 (reading uncertain) [SEQ ID NO: 115], the “EC50 hGlucagon-R (cAMP)” value falls from 19.5 pM to 1.9 pM (10-fold).

In the case of H[Aib]QGTFTSDLSKQK([γGlu-X70])EEEAARLFIEWLKAGGPSSGAPPPS-NH2 (reading uncertain) [SEQ ID NO: 215], the “EC50 hGlucagon-R (cAMP)” value is reported as 42.6 pM.
